{"source": "patent US20090117091A1", "about": "(BIOMARIN PHARMACEUTICAL, published 2009)", "binders": {"B1": {"name": "biotinylated, His-tagged recombinant wild-type CI-MPR domains 10-13 (1288FS) (receptor)", "chain": "AGAPTGHHHHHHAPGLNDIFEAQKIEWHEPFDLTECSFKDGAGNSFDLSSLSRYSDNWEAITGTGDPEHYLINVCKSLAPQAGTEPCPPEAAACLLGGSKPVNLGRVRDGPQWRDGIIVLKYVDGDLCPDGIRKKSTTIRFTCSESQVNSRPMFISAVEDCEYTFAWPTATACPMKSNEHDDCQVTNPSTGHLFDLSSLSGRAGFTAAYSEKGLVYMSICGENENCPPGVGACFGQTRISVGKANKRLRYVDQVLQLVYKDGSPCPSKSGLSYKSVISFVCRPEAGPTNRPMLISLDKQTCTLFFSWHTPLACEQATECSVRNGSSIVDLSPLIHRTGGYEAYDESEDDASDTNPDFYINICQPLNPMHGVPCPAGAAVCKVPIDGPPIDIGRVAGPPILNPIANEIYLNFESSTPCLADKHFNYTSLIAFHCKRGVSMGTPKLLRTSECDFVFEWETPVVCPDEVRMDGCTLTDEQLLYSFNLSSLSTSTFKVTRDSRTYSVGVCTFAVGPEQGGCKDGGVCLLSGTKGASFGRLQSMKLDYRHQDEAVVLSYVNGDRCPPETDDGVPCVFPFIFNGKSYEECIIESRAKLWCSTTADYDRDHEWGFCRHSNSYRTSSIIFKCDEDEDIGRPQVFSEVRGCDVTFEWKTKVVCP", "modifications": "biotinylated with BirA enzyme in the Biotin AS domain", "notes": "The protein was immobilised on a streptavidin chip; also called p1288; HIS-BIOTIN-CI-MPR DOMAINS 10-13"}}, "molecular_target": "GILT-tagged GAA ZC-701 (human, UniProt P10253 70-952)", "assay": "SPR (Biacore 3000); biotinylated CI-MPR Dom10-13 on SA chip, analyte in solution, steady-state affinity fit, I1572T mutant surface as reference", "method": "Following docking of the SA sensor chip, the SA chip was washed two times with deionized water. The flow cells to be coupled were conditioned by injecting 60 ml of a buffer containing 50 mM NaOH/1 M NaCl at a flow rate of 20 ml/min. The chip was washed with H2O as described above. The chip was then washed with coupling buffer (10 mM HEPES pH 7.4/100 mM NaCl) as described above. […] Flow cells (FC) 1 & 2 were coupled at a higher density than FC 3 & 4. FC1 and FC3 were immobilized with the mutant Dom 10-13 construct and were used as the reference surface (i.e., the response obtained from FC1 was subtracted from FC2; the response obtained from FC3 was subtracted from FC4). FC2 and FC4 were immobilized with the wild-type Dom10-13 construct. […] Following the 50 ml injection of coupling buffer containing the Dom10-13 constructs, the chip was washed with coupling buffer alone (10 ml injection at a flow rate of 10 ml/min). Remaining unbound streptavidin binding sites were saturated with biotin by two sequential 10 ml injections of biotin (10 mM) at a flow rate of 10 μl/min.\nAfter coupling, the flow cells were equilibrated in running buffer (10 mM HEPES pH 7.0, 150 mM NaCl, and 0.005% (v/v) surfactant P20)."}
{"binder": "B1", "values": [{"measurement": "Kd", "result": 33, "unit": "nM"}]}
